These results are taken from publication PMC10397247.

What all share (test): two-hybrid library CCNG1;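 note: natural log of median RNA to DNA barcode read ratio; higher means stronger binding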
Assay [1] has as its target T1, 4H730-bA.
T1 chain: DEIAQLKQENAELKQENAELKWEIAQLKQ

Assay [2] has as its target T2, O15-bP.
T2 chain: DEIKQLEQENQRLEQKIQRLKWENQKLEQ

Assay [3] addresses T3, 4H349-bA.
T3 chain: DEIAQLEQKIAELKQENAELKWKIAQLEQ

In assay [4] the target is T4, 4H932-bA.
T4 chain: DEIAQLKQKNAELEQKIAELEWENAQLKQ

For assay [5], the target named is T5, 4H949-bA.
T5 chain: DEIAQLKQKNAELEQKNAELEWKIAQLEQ

The target in assay [6] is T6, 4H796-bA.
T6 chain: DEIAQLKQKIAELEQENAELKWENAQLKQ

Assay [7] deals with T7, 4H56-bA.
T7 chain: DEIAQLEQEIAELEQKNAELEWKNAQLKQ

On to DEIAQLEQKIAELKQENAELKWKIAQLEQ [4H349-bA], for which the interaction score in assay [1] is -0.854; in assay [2], 0.584; in assay [3], 0.649; in assay [4] it was -0.919; in assay [5], -1.01; in assay [6], -0.458. Also, the interaction score in assay [7] was -0.982.
